Assay results as given in paper PMC8924211 (Nature Communications, 2022).
Substitutions are numbered along the chain they refer to. Values joined by “and” are separate entries in the source; they are usually repeats but may differ in a detail not shown here. Equal values may be shown once.

Key:
SNAP-GAL2R R184^5.35A = molecular target: T1, SNAP-GAL2R R184^5.35A (human, UniProt O43603 1-387, R184^5.35A, Lumi4-Tb on the SNAP tag)
T1 construct: also called R184A; source: HEK293, transfected, on cells; not shown: SNAP tag, N-terminal, kept
T1 sequence (looked up): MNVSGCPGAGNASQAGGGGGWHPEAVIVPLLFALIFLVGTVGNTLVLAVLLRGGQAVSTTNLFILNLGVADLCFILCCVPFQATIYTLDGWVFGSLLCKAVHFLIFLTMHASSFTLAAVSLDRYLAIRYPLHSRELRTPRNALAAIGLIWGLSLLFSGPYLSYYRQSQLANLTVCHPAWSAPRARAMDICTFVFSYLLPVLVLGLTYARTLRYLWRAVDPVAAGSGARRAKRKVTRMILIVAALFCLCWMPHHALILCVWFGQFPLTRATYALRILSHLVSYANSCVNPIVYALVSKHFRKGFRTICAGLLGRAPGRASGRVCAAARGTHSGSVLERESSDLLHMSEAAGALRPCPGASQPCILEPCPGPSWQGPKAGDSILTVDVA

[1] = molecular target: SNAP-GAL2R Q82^2.61A (human) (UniProt O43603)
[2] = molecular target: SNAP-GAL2R Y86^2.65A (human) (UniProt O43603)
SNAP-GAL2R A170^ECL2S [3] = molecular target: T2, SNAP-GAL2R A170^ECL2S (human, UniProt O43603 1-387, A170^ECL2S, Lumi4-Tb on the SNAP tag)
T2 construct: also called A170S; source: HEK293, transfected, on cells; not shown: SNAP tag, N-terminal, kept
T2 sequence (looked up): T1 sequence (looked up) with A170S, A184R

[4] = molecular target: SNAP-GAL2R F264^ECL3A (human) (UniProt O43603)
SNAP-GAL2R T267^7.28A = molecular target: T3, SNAP-GAL2R T267^7.28A (human, UniProt O43603 1-387, T267^7.28A, Lumi4-Tb on the SNAP tag)
T3 construct: also called T267A; source: HEK293, transfected, on cells; not shown: SNAP tag, N-terminal, kept
T3 sequence (looked up): T1 sequence (looked up) with A184R, T267A

SNAP-GAL2R V259^6.58A [5] = molecular target: T4, SNAP-GAL2R V259^6.58A (human, UniProt O43603 1-387, V259^6.58A, Lumi4-Tb on the SNAP tag)
T4 construct: also called V259A; source: HEK293, transfected, on cells; not shown: SNAP tag, N-terminal, kept
T4 sequence (looked up): T1 sequence (looked up) with A184R, V259A

SNAP-GAL2R L255^6.54A = molecular target: T5, SNAP-GAL2R L255^6.54A (human, UniProt O43603 1-387, L255^6.54A, Lumi4-Tb on the SNAP tag)
T5 construct: also called L255A; source: HEK293, transfected, on cells; not shown: SNAP tag, N-terminal, kept
T5 sequence (looked up): T1 sequence (looked up) with A184R, L255A

[6] = molecular target: SNAP-GAL2R L266^ECL3A (human) (UniProt O43603)
[7] = molecular target: SNAP-GAL2R I85^2.64A (human) (UniProt O43603)
[8] = molecular target: SNAP-GAL2R Y271^7.32A (human) (UniProt O43603)
SNAP-GAL2R L172^ECL2A [9] = molecular target: T6, SNAP-GAL2R L172^ECL2A (human, UniProt O43603 1-387, L172^ECL2A, Lumi4-Tb on the SNAP tag)
T6 construct: also called L172A; source: HEK293, transfected, on cells; not shown: SNAP tag, N-terminal, kept
T6 sequence (looked up): T1 sequence (looked up) with L172A, A184R

SNAP-GAL2R L169^ECL2A [10] = molecular target: T7, SNAP-GAL2R L169^ECL2A (human, UniProt O43603 1-387, L169^ECL2A, Lumi4-Tb on the SNAP tag)
T7 construct: also called L169A; source: HEK293, transfected, on cells; not shown: SNAP tag, N-terminal, kept
T7 sequence (looked up): T1 sequence (looked up) with L169A, A184R

SNAP-GAL2R I256^6.55A = molecular target: T8, SNAP-GAL2R I256^6.55A (human, UniProt O43603 1-387, I256^6.55A, Lumi4-Tb on the SNAP tag)
T8 construct: also called I256A; source: HEK293, transfected, on cells; not shown: SNAP tag, N-terminal, kept
T8 sequence (looked up): T1 sequence (looked up) with A184R, I256A

SNAP-GAL2R A170^ECL2S [11] = molecular target: T2, SNAP-GAL2R A170^ECL2S; remark: listed apart in the source
[12] = molecular target: SNAP-GAL2R F264^ECL3A (human) (UniProt O43603); remark: listed apart in the source
SNAP-GAL2R V259^6.58A [13] = molecular target: T4, SNAP-GAL2R V259^6.58A; remark: listed apart in the source
[14] = molecular target: SNAP-GAL2R L266^ECL3A (human) (UniProt O43603); remark: listed apart in the source
[15] = molecular target: SNAP-GAL2R Y271^7.32A (human) (UniProt O43603); remark: listed apart in the source
SNAP-GAL2R L172^ECL2A [16] = molecular target: T6, SNAP-GAL2R L172^ECL2A; remark: listed apart in the source
SNAP-GAL2R L169^ECL2A [17] = molecular target: T7, SNAP-GAL2R L169^ECL2A; remark: listed apart in the source

“galanin (full length, unlabeled) (peptide)” was tested, and the calcium assay EC50 (galanin; HEK293/Gα16 cells) (SNAP-GAL2R R184^5.35A) was 0.138 µM and 0.115 µM and 0.058 µM, the calcium assay EC50 (galanin; HEK293/Gα16 cells) [1] was 4.68 µM and 4.33 µM and 2.98 µM and the calcium assay EC50 (galanin; HEK293/Gα16 cells) [2] was 3.23 µM and 2.21 µM. The calcium assay EC50 (galanin; HEK293/Gα16 cells) (SNAP-GAL2R A170^ECL2S [3]) was 0.01 µM and 0.00808 µM and 0.0124 µM, the calcium assay EC50 (galanin; HEK293/Gα16 cells) [4] was 1.76 µM and 2.39 µM and 3.59 µM and the calcium assay EC50 (galanin; HEK293/Gα16 cells) (SNAP-GAL2R T267^7.28A) was 3.15 µM and 2.33 µM and 1.26 µM. For the same substance, the calcium assay EC50 (galanin; HEK293/Gα16 cells) (SNAP-GAL2R V259^6.58A [5]) was 0.29 µM and 0.275 µM and 0.205 µM, the calcium assay EC50 (galanin; HEK293/Gα16 cells) (SNAP-GAL2R L255^6.54A) was 0.153 µM and 0.293 µM and the calcium assay EC50 (galanin; HEK293/Gα16 cells) [6] was 27.9 µM and 7.14 µM. The calcium assay EC50 (galanin; HEK293/Gα16 cells) [7] was 5.21 µM and 4.44 µM and 1.38 µM, the calcium assay EC50 (galanin; HEK293/Gα16 cells) [8] was 0.515 µM and 0.678 µM and 0.969 µM and the calcium assay EC50 (galanin; HEK293/Gα16 cells) (SNAP-GAL2R L172^ECL2A [9]) was 0.059 µM and 0.0717 µM and 0.0554 µM. The calcium assay EC50 (galanin; HEK293/Gα16 cells) (SNAP-GAL2R L169^ECL2A [10]) was 0.0935 µM and 0.0825 µM and 0.0225 µM.
For “spexin (mature, 14 amino acids) (peptide)”, the calcium assay EC50 (spexin) (SNAP-GAL2R I256^6.55A) was 0.674 µM and 0.438 µM and 0.924 µM, the calcium assay EC50 (spexin) (SNAP-GAL2R A170^ECL2S [11]) was 95.4 nM and 151 nM (2×) and the calcium assay EC50 (spexin) [12] was over 100 µM. The calcium assay EC50 (spexin) (SNAP-GAL2R V259^6.58A [13]) was 1.33 µM and 6.62 µM and 6.15 µM, the calcium assay EC50 (spexin) [14] was 25.1 µM and 15.3 µM and 12 µM and the calcium assay EC50 (spexin) [15] was 5.96 µM and 1.58 µM and 0.752 µM. For the same substance, the calcium assay EC50 (spexin) (SNAP-GAL2R L172^ECL2A [16]) was 3.12 µM and 10.8 µM and 12.1 µM and the calcium assay EC50 (spexin) (SNAP-GAL2R L169^ECL2A [17]) was 7.17 µM and 5.14 µM and 1.83 µM.
